Measurements reported in the supplement of paper PMC9112550, “Optimization of the antimicrobial peptide Bac7 by deep mutational scanning” (BMC Biology, 2022).

Test system: Escherichia coli TOP10
Assay: shrunken log2 fold change of peptide-encoding DNA abundance (4.5 h post-induction vs induction); higher = less antimicrobial activity (less host growth inhibition)
Settings: time post-induction: 4.5 h; library: site-saturation at positions 5, 18, 19, 20
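Note: peptides expressed intracellularly from a pBAD plasmid library in pooled LB shake-flask culture, induced with 0.3% L-arabinose, DNA abundance read by NGS, three biological replicates, DESeq2 with apeglm shrinkage.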

Row | Sequence | shrunken log2 fold change
1 | RRIRVRPPRLPRPRPRPPLCPRP | 0.338
2 | RRIRVRPPRLPRPRPRPPLRPRP | 0.93
3 | RRIRVRPPRLPRPRPRPPMAPRP | 0.228
4 | RRIRVRPPRLPRPRPRPPMCPRP | 0.0598
5 | RRIRVRPPRLPRPRPRPPMIPRP | -0.523
6 | RRIRVRPPRLPRPRPRPPNNPRP | -0.233
7 | RRIRVRPPRLPRPRPRPPNRPRP | 0.144
8 | RRIRVRPPRLPRPRPRPPPPPRP | 1
9 | RRIRVRPPRLPRPRPRPPQTPRP | 0.0537
10 | RRIRVRPPRLPRPRPRPPRKPRP | 0.482
11 | RRIRVRPPRLPRPRPRPPSNPRP | -0.034
12 | RRIRVRPPRLPRPRPRPPTDPRP | 0.116
13 | RRIRVRPPRLPRPRPRPPTQPRP | 0.273
14 | RRIRVRPPRLPRPRPRPPVAPRP | 0.466
15 | RRIRVRPPRLPRPRPRPPWYPRP | 0.0253
16 | RRIRVRPPRLPRPRPRPQAIPRP | -0.0973
17 | RRIRVRPPRLPRPRPRPQCEPRP | -0.0122
18 | RRIRVRPPRLPRPRPRPQCGPRP | -0.0769
19 | RRIRVRPPRLPRPRPRPQCTPRP | -0.149
20 | RRIRVRPPRLPRPRPRPQDAPRP | -0.443
21 | RRIRVRPPRLPRPRPRPQDEPRP | -0.114
22 | RRIRVRPPRLPRPRPRPQEKPRP | 0.0369
23 | RRIRVRPPRLPRPRPRPQENPRP | -0.119
24 | RRIRVRPPRLPRPRPRPQEWPRP | -0.0187
25 | RRIRVRPPRLPRPRPRPQFQPRP | -0.0795

Row | Sequence | shrunken log2 fold change
26 | RRIRVRPPRLPRPRPRPQGCPRP | -0.0651
27 | RRIRVRPPRLPRPRPRPQGTPRP | -0.289
28 | RRIRVRPPRLPRPRPRPQHPPRP | -0.0951
29 | RRIRVRPPRLPRPRPRPQHWPRP | 0.171
30 | RRIRVRPPRLPRPRPRPQIQPRP | -0.034
31 | RRIRVRPPRLPRPRPRPQKHPRP | -0.247
32 | RRIRVRPPRLPRPRPRPQKLPRP | -0.0565
33 | RRIRVRPPRLPRPRPRPQKVPRP | -0.355
34 | RRIRVRPPRLPRPRPRPQLDPRP | 0.269
35 | RRIRVRPPRLPRPRPRPQLEPRP | 0.144
36 | RRIRVRPPRLPRPRPRPQLHPRP | -0.147
37 | RRIRVRPPRLPRPRPRPQMCPRP | 0.00424
38 | RRIRVRPPRLPRPRPRPQMNPRP | -0.0919
39 | RRIRVRPPRLPRPRPRPQMQPRP | -0.325
40 | RRIRVRPPRLPRPRPRPQNAPRP | 0.00238
41 | RRIRVRPPRLPRPRPRPQNEPRP | -0.303
42 | RRIRVRPPRLPRPRPRPQNKPRP | -0.497
43 | RRIRVRPPRLPRPRPRPQPLPRP | -0.109
44 | RRIRVRPPRLPRPRPRPQRQPRP | -0.207
45 | RRIRVRPPRLPRPRPRPQRWPRP | 0.496
46 | RRIRVRPPRLPRPRPRPQSWPRP | 0.256
47 | RRIRVRPPRLPRPRPRPQTTPRP | 0.213
48 | RRIRVRPPRLPRPRPRPQVSPRP | 0.0417
49 | RRIRVRPPRLPRPRPRPQWIPRP | -0.895
50 | RRIRVRPPRLPRPRPRPRCPPRP | -0.00901

Row | Sequence | shrunken log2 fold change
51 | RRIRVRPPRLPRPRPRPREAPRP | 0.0545
52 | RRIRVRPPRLPRPRPRPREVPRP | 0.089
53 | RRIRVRPPRLPRPRPRPRFRPRP | 0.193
54 | RRIRVRPPRLPRPRPRPRGQPRP | 0.131
55 | RRIRVRPPRLPRPRPRPRHFPRP | 0.13
56 | RRIRVRPPRLPRPRPRPRHTPRP | 0.226
57 | RRIRVRPPRLPRPRPRPRIKPRP | -0.125
58 | RRIRVRPPRLPRPRPRPRINPRP | -0.07
59 | RRIRVRPPRLPRPRPRPRKAPRP | -0.124
60 | RRIRVRPPRLPRPRPRPRKSPRP | 0.337
61 | RRIRVRPPRLPRPRPRPRLEPRP | 0.138
62 | RRIRVRPPRLPRPRPRPRNMPRP | -0.318
63 | RRIRVRPPRLPRPRPRPRPVPRP | 0.515
64 | RRIRVRPPRLPRPRPRPRQNPRP | 0.00342
65 | RRIRVRPPRLPRPRPRPRQPPRP | 0.284
66 | RRIRVRPPRLPRPRPRPRQWPRP | 0.236
67 | RRIRVRPPRLPRPRPRPRRLPRP | 0.135
68 | RRIRVRPPRLPRPRPRPRSMPRP | -0.123
69 | RRIRVRPPRLPRPRPRPRTNPRP | -0.42
70 | RRIRVRPPRLPRPRPRPRWLPRP | 0.211
71 | RRIRVRPPRLPRPRPRPRWQPRP | 0.0341
72 | RRIRVRPPRLPRPRPRPSAEPRP | 0.299
73 | RRIRVRPPRLPRPRPRPSDEPRP | -0.463
74 | RRIRVRPPRLPRPRPRPSDHPRP | -0.0923
75 | RRIRVRPPRLPRPRPRPSEDPRP | 0.376

Row | Sequence | shrunken log2 fold change
76 | RRIRVRPPRLPRPRPRPSEMPRP | 0.0713
77 | RRIRVRPPRLPRPRPRPSGFPRP | -0.131
78 | RRIRVRPPRLPRPRPRPSHKPRP | -0.24
79 | RRIRVRPPRLPRPRPRPSHSPRP | -0.171
80 | RRIRVRPPRLPRPRPRPSIIPRP | -0.384
81 | RRIRVRPPRLPRPRPRPSKFPRP | -0.579
82 | RRIRVRPPRLPRPRPRPSLKPRP | 0.215
83 | RRIRVRPPRLPRPRPRPSLQPRP | -0.0631
84 | RRIRVRPPRLPRPRPRPSLWPRP | 0.183
85 | RRIRVRPPRLPRPRPRPSMDPRP | 2.34
86 | RRIRVRPPRLPRPRPRPSNIPRP | -0.526
87 | RRIRVRPPRLPRPRPRPSQPPRP | -0.112
88 | RRIRVRPPRLPRPRPRPSQVPRP | -0.215
89 | RRIRVRPPRLPRPRPRPSRGPRP | 0.413
90 | RRIRVRPPRLPRPRPRPSRTPRP | -0.47
91 | RRIRVRPPRLPRPRPRPSSRPRP | -0.231
92 | RRIRVRPPRLPRPRPRPSVFPRP | -0.126
93 | RRIRVRPPRLPRPRPRPSVMPRP | -0.15
94 | RRIRVRPPRLPRPRPRPSYQPRP | -0.34
95 | RRIRVRPPRLPRPRPRPTAAPRP | 0.09
96 | RRIRVRPPRLPRPRPRPTAIPRP | 0.12
97 | RRIRVRPPRLPRPRPRPTCVPRP | -0.0916
98 | RRIRVRPPRLPRPRPRPTDWPRP | 0.255
99 | RRIRVRPPRLPRPRPRPTGQPRP | 0.526
100 | RRIRVRPPRLPRPRPRPTIKPRP | -0.226

Row | Sequence | shrunken log2 fold change
101 | RRIRVRPPRLPRPRPRPTIQPRP | -0.526
102 | RRIRVRPPRLPRPRPRPTISPRP | -0.12
103 | RRIRVRPPRLPRPRPRPTIWPRP | -0.0331
104 | RRIRVRPPRLPRPRPRPTKFPRP | -0.248
105 | RRIRVRPPRLPRPRPRPTKNPRP | -0.00729
106 | RRIRVRPPRLPRPRPRPTLDPRP | 0.125
107 | RRIRVRPPRLPRPRPRPTLTPRP | -0.0107
108 | RRIRVRPPRLPRPRPRPTLVPRP | 0.0318
109 | RRIRVRPPRLPRPRPRPTMWPRP | 0.267
110 | RRIRVRPPRLPRPRPRPTNSPRP | -0.436
111 | RRIRVRPPRLPRPRPRPTPFPRP | 0.279
112 | RRIRVRPPRLPRPRPRPTQHPRP | 0.155
113 | RRIRVRPPRLPRPRPRPTRTPRP | 0.495
114 | RRIRVRPPRLPRPRPRPTSRPRP | -0.139
115 | RRIRVRPPRLPRPRPRPTTCPRP | -0.0091
116 | RRIRVRPPRLPRPRPRPTTKPRP | -0.162
117 | RRIRVRPPRLPRPRPRPTVVPRP | 0.0028
118 | RRIRVRPPRLPRPRPRPTYHPRP | 1.5
119 | RRIRVRPPRLPRPRPRPTYWPRP | 0.0478
120 | RRIRVRPPRLPRPRPRPVAAPRP | 0.368
121 | RRIRVRPPRLPRPRPRPVAFPRP | -0.0455
122 | RRIRVRPPRLPRPRPRPVAYPRP | -0.282
123 | RRIRVRPPRLPRPRPRPVCKPRP | -0.444
124 | RRIRVRPPRLPRPRPRPVDEPRP | 0.144
125 | RRIRVRPPRLPRPRPRPVFLPRP | -0.339

Row | Sequence | shrunken log2 fold change
126 | RRIRVRPPRLPRPRPRPVFPPRP | 0.038
127 | RRIRVRPPRLPRPRPRPVGDPRP | 0.294
128 | RRIRVRPPRLPRPRPRPVGPPRP | 0.0843
129 | RRIRVRPPRLPRPRPRPVKYPRP | 0.228
130 | RRIRVRPPRLPRPRPRPVNKPRP | -0.186
131 | RRIRVRPPRLPRPRPRPVNRPRP | -0.142
132 | RRIRVRPPRLPRPRPRPVPQPRP | 0.324
133 | RRIRVRPPRLPRPRPRPVQKPRP | 0.0709
134 | RRIRVRPPRLPRPRPRPVRDPRP | 0.0998
135 | RRIRVRPPRLPRPRPRPVRKPRP | 0.274
136 | RRIRVRPPRLPRPRPRPVTMPRP | -0.196
137 | RRIRVRPPRLPRPRPRPVVDPRP | -0.0784
138 | RRIRVRPPRLPRPRPRPVVHPRP | -0.0292
139 | RRIRVRPPRLPRPRPRPVWSPRP | 0.754
140 | RRIRVRPPRLPRPRPRPWCDPRP | -0.394
141 | RRIRVRPPRLPRPRPRPWCKPRP | 0.0335
142 | RRIRVRPPRLPRPRPRPWFWPRP | 0.121
143 | RRIRVRPPRLPRPRPRPWGHPRP | 0.0373
144 | RRIRVRPPRLPRPRPRPWHCPRP | -0.0339
145 | RRIRVRPPRLPRPRPRPWIEPRP | -0.104
146 | RRIRVRPPRLPRPRPRPWIKPRP | 0.0141
147 | RRIRVRPPRLPRPRPRPWIQPRP | 0.0857
148 | RRIRVRPPRLPRPRPRPWKMPRP | -0.148
149 | RRIRVRPPRLPRPRPRPWMDPRP | 0.0171
150 | RRIRVRPPRLPRPRPRPWMGPRP | -0.339
